# Test results reported in patent publication US20260274928A1.
# B1: S2V29-v37.2 (antibody, V domains shown)
# VH: EVQLVESGGSVVQPGRALRLSCAASGITFSSFGMYWVRQAPGKGLEWLGYIAYDGSDTYYADSVKGRFTISRDNSKNTLYLQMNSLRIEDTAVYYCAKDYYPLLSYYYGLDVWGQGTTVTVSS
# VL: QSVLTQPRSVSGSPGQSVTISCTGTSSDVGAYNYVSWYQQHPGKAPKFMIYDVDQRPSGVPDRFSGSKSGNTASLIISGLQAEDEADYYCSSYAGSYIWVFGGGTQLTVL
# Target: 9-strain panel of authentic SARS-CoV-2 viral isolates
# Experiment: cell-based or functional assay
binder,measurement,value
B1,"IC50, authentic virus neutralization",1.3 to 9.6 ng/mL
same,"median IC50, authentic virus neutralization",2 ng/mL
